Measured values: article PMC10180154, “Screening and Identification of ssDNA Aptamers for Low-Density Lipoprotein (LDL) Receptor-Related Protein 6”

B1: MutLRP6-A3 (ssDNA)
DNA: AGCAGCACAGAGGTTATTTGGCAGCTAAGCAGGCGGCTCACAAAACCATTCGCATGCGGCCCTATGCGTGCTTTTGTGAA
B2: MutLRP6-A2 (ssDNA)
DNA: AGCAGCACTTAGGTCAGATGGCCACATTAGTCTCACCACTACCTTTTTTCCTACCGCCGCCCTATGCGTGCTACCGTGAA

Biological target: LRP6 (recombinant human LRP-6, Fc chimera) (Homo sapiens, UniProt O75581 20-1370)
Assay: SPR; CE-LIF: incubation pH 8.0, 0.155% glutathione, 0.395% Tris-HCl; running buffer 50 mM borate pH 7.6, 20 kV, 25 C (CE-SELEX conditions). SPR: PBST pH 7.4, 0.05% Tween-20, 25 C, protein amine-coupled on CM5. AuNP: room temperature, then 0.9 M NaCl.
Settings: protein: commercial; tags: Fc chimera; chain copies: 2

Sequence of LRP6 (recombinant human LRP-6, Fc chimera) (O75581 20-1370, change not shown): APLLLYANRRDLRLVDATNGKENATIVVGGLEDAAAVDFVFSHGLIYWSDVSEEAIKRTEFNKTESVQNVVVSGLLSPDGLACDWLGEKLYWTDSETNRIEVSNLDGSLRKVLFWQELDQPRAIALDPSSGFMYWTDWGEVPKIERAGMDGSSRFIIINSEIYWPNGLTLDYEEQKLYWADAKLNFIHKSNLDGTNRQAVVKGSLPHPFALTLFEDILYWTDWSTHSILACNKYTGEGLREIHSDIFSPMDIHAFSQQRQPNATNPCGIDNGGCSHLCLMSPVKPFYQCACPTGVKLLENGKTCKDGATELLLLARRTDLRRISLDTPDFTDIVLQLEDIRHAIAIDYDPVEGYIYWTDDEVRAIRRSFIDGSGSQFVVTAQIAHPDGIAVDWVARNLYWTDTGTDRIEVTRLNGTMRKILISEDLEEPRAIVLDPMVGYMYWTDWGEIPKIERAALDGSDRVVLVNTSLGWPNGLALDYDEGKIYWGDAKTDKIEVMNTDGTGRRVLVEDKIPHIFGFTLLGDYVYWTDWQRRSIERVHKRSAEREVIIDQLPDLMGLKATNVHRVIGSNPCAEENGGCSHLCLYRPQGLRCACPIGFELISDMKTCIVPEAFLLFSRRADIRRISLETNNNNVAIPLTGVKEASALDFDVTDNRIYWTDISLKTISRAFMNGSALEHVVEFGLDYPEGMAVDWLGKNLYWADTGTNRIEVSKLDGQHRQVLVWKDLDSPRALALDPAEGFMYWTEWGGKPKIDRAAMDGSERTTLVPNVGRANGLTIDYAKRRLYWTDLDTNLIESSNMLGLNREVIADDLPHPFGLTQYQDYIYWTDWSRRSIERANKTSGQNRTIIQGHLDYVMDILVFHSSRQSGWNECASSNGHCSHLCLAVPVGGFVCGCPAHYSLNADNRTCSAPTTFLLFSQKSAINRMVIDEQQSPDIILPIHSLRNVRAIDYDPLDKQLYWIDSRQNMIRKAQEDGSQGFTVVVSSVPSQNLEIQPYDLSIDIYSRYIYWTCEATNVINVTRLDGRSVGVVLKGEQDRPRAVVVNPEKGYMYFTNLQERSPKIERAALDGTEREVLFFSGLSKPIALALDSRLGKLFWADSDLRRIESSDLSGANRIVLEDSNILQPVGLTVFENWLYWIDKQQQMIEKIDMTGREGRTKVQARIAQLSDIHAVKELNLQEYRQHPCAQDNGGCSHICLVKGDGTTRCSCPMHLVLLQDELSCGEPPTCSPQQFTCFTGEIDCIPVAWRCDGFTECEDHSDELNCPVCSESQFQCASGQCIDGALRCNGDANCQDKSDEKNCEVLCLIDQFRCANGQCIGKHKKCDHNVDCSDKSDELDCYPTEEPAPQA

Binder | Kd [µM] | binding result
B1 | 2.68 | –
B2 | – | no binding
